Experimental data taken from paper PMC9279424.
“And” between values parts separate entries of the source, which are not always exact repeats. Equal values may be shown once. Blank lines part the entries; values can stand above or below the substance they belong to.

What was measured:
[1] = target: Cyani HAP2 ectodomain (residues 28–564), wild type, from Expi293F cells (Cyanidioschyzon merolae); assay: SEC; WT and mutant ectodomains (16 μM) with nine volumes of citrate buffer pH 3.5, 500 mM NaCl, 0.1% DDM, 37 °C; running buffer pH 3.5 with 0.01% DDM
[2] = target: Cyani HAP2 ectodomain (residues 28–564), wild type, from Expi293F cells (Cyanidioschyzon merolae); assay: SEC; WT and mutant ectodomains (16 μM) with nine volumes of citrate buffer pH 4.3, 500 mM NaCl, 0.1% DDM, 2 or 4 h at 37 °C; running buffer pH 4.3 with 0.01% DDM
[3] = target: Cyani HAP2 ectodomain (residues 28–564), wild type, from Expi293F cells (Cyanidioschyzon merolae); assay: SEC; WT and mutant ectodomains (16 μM) with nine volumes of citrate buffer pH 4.7, 500 mM NaCl, 0.1% DDM; gel filtered immediately or after 2 h at 37 °C in pH 4.7 buffer with 0.01% DDM
[4] = target: Cyani HAP2 ectodomain (residues 28–564) fusion loop mutant FL2 (L210A, L211A, F213A) (Cyanidioschyzon merolae); assay: SEC; WT and mutant ectodomains (16 μM) with nine volumes of citrate buffer pH 3.5, 500 mM NaCl, 0.1% DDM, 37 °C; running buffer pH 3.5 with 0.01% DDM
[5] = target: Cyani HAP2 ectodomain (residues 28–564) fusion loop mutant FL2 (L210A, L211A, F213A) (Cyanidioschyzon merolae); assay: SEC; WT and mutant ectodomains (16 μM) with nine volumes of citrate buffer pH 4.3, 500 mM NaCl, 0.1% DDM, 2 or 4 h at 37 °C; running buffer pH 4.3 with 0.01% DDM
[6] = target: Chlamy HAP2 (Chlamydomonas reinhardtii HAP2), purified monomer (Chlamydomonas reinhardtii); assay: negative-stain EM; Chlamy HAP2 at pH 7.5 with 0.1% β-DDM, 2 h, 23 °C, gel filtered; 2D class averages
[7] = target: Chlamy HAP2 (Chlamydomonas reinhardtii HAP2), purified monomer (Chlamydomonas reinhardtii); assay: negative-stain EM; Chlamy HAP2 at pH 7.5 with 0.1% β-DDM, 26 h, 23 °C, gel filtered; 2D class averages
[8] = target: Cyani HAP2 ectodomain (residues 28–564) fusion loop mutant FL3 (W147A, L148A) (Cyanidioschyzon merolae); assay: SEC; WT and mutant ectodomains (16 μM) with nine volumes of citrate buffer pH 3.5, 500 mM NaCl, 0.1% DDM, 37 °C; running buffer pH 3.5 with 0.01% DDM
[9] = target: Cyani HAP2 ectodomain (residues 28–564) fusion loop mutant FL3 (W147A, L148A) (Cyanidioschyzon merolae); assay: SEC; WT and mutant ectodomains (16 μM) with nine volumes of citrate buffer pH 4.3, 500 mM NaCl, 0.1% DDM, 2 or 4 h at 37 °C; running buffer pH 4.3 with 0.01% DDM
[10] = target: Cyani HAP2 ectodomain (aa 28–564), from Drosophila S2 cells (Cyanidioschyzon merolae); assay: negative-stain EM; Cyani HAP2 incubated with β-DDM at pH 5.0, 37 °C, 2 h, gel filtered; 2D class averages
[11] = target: Cyani HAP2 ectodomain (aa 28–564), from Drosophila S2 cells (Cyanidioschyzon merolae); assay: negative-stain EM; Cyani HAP2 incubated with β-DDM at pH 5.0, 37 °C, 26 h, gel filtered; 2D class averages
[12] = target: Cyani HAP2 ectodomain (aa 28–564), from Drosophila S2 cells (Cyanidioschyzon merolae); assay: negative-stain EM; gel filtration peak of Cyani HAP2 treated with β-DDM at pH 2.0, 37 °C; 2D class averages
[13] = target: Cyani HAP2 ectodomain (aa 28–564), from Drosophila S2 cells (Cyanidioschyzon merolae); assay: SEC-MALS; Superdex 200 10/300 GL; Cyani HAP2 trimer formed at pH 1.5 with β-DDM; protein conjugate model (glycoprotein and β-DDM components)
[14] = target: Cyani HAP2 ectodomain (aa 28–564), from Drosophila S2 cells (Cyanidioschyzon merolae); assay: SEC; incubated with 0.1% β-DDM, 500 mM NaCl at pH 1.5, 2.0, 3.5, 4.3 or 5.0, 37 °C, 26 h; Superdex 200 in buffer of the same pH, 0.01% β-DDM; monomer to trimer
[15] = target: Cyani HAP2 D1D2 (residues 28–457) (Cyanidioschyzon merolae); assay: negative-stain EM; Cyani HAP2 D1D2 at pH 1.5 in 0.1% β-DDM, 26 h, 37 °C; 2D class averages
[16] = target: Cyani HAP2 D1D2 (residues 28–457) (Cyanidioschyzon merolae); assay: negative-stain EM; Cyani HAP2 D1D2 at pH 5.0 in 0.1% β-DDM, 26 h, 37 °C; 2D class averages

Substance: Cyani HAP2 ectodomain (residues 28–564), wild type, from Expi293F cells (domain or fragment)
stoichiometry N [1]: 3 | stoichiometry N [2]: 3 | stoichiometry N [3]: 3

Substance: Cyani HAP2 ectodomain (residues 28–564) fusion loop mutant FL2 (L210A, L211A, F213A) (domain or fragment)
stoichiometry N [4]: 3 | stoichiometry N [5]: 3

Substance: Cyani HAP2 D1D2 (residues 28–457) (domain or fragment)
stoichiometry N [15]: 3 | stoichiometry N [16]: 3 and 2

More lines, now with the values ahead:

stoichiometry N [6]: 2 and 3 | stoichiometry N [7]: 3 and 6
Substance: Chlamy HAP2 (Chlamydomonas reinhardtii HAP2), purified monomer (domain or fragment)

stoichiometry N [8]: 3 | stoichiometry N [9]: 3
Substance: Cyani HAP2 ectodomain (residues 28–564) fusion loop mutant FL3 (W147A, L148A) (domain or fragment)

stoichiometry N [10]: 2 and 3 | stoichiometry N [11]: 3 and 6 | stoichiometry N [12]: 3 and 6 | stoichiometry N [13]: 3 | stoichiometry N [14]: 3
Substance: Cyani HAP2 ectodomain (aa 28–564), from Drosophila S2 cells (domain or fragment)
